Laboratory results as given in publication PMC7794802, “The Interactome of Cancer-Related Lysyl Oxidase and Lysyl Oxidase-Like Proteins” (Cancers, 2020).

Tests used:
[1] = molecular target: human α5β1 integrin, full-length (Millipore CC1027) (human) (UniProt P08648); test: BLI; inhibition: α5β1 integrin at 35.5 µg/mL preincubated one hour at room temperature with or without RGD peptide at 50 µg/mL, then LOXL2-coated AR2G sensor dipped in it; same buffer as the kinetics
SPARC = molecular target: T1, SPARC (UniProt P09486 18-303); test: SPR; BIAcore T100; ligands covalently immobilised by amine coupling on CM5 or CM3 (collagen XVII) sensor chips; LOXL2, SRCR 1-2 and SRCR 1-4 injected in 10 mM Hepes pH 7.4, 150 mM NaCl, 0.05% P20
T1 construct: SPARC; also called immobilized SPARC
T1 sequence (looked up): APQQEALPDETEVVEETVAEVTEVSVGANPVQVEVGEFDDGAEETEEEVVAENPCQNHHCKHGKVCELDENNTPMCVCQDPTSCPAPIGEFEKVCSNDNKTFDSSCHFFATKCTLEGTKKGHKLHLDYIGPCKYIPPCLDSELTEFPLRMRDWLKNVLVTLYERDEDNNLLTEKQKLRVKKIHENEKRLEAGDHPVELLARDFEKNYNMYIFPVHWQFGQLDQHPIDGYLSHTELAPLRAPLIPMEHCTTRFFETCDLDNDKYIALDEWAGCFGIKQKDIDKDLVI

[2] = molecular target: T2, human α5β1 integrin, full-length (Millipore CC1027) (human, UniProt P08648 42-1049; P05556 21-798); test: SPR; SPR imaging, BIAcore Flexchip; α5β1 integrin (29.3 µg/mL) as analyte recirculated over ECM arrays including spotted LOXL2; 10 mM Hepes pH 7.4, 150 mM NaCl, 50 mM β-octyl-D-glucopyranoside, 2 mM MgCl2, 2 mM MnCl2; conditions: both partners purified
T2 construct: integrin alpha-5 subunit of human α5β1 integrin; integrin beta-1 subunit of human α5β1 integrin; Used in buffer with 50 mM β-octyl-D-glucopyranoside, MgCl2 and MnCl2; The source is told for the BLI assays only; also called full-length α5β1 integrin; source: bought: Millipore, Merck, CC1027
T2 sequence (P08648 42-1049, chain 1 of 2): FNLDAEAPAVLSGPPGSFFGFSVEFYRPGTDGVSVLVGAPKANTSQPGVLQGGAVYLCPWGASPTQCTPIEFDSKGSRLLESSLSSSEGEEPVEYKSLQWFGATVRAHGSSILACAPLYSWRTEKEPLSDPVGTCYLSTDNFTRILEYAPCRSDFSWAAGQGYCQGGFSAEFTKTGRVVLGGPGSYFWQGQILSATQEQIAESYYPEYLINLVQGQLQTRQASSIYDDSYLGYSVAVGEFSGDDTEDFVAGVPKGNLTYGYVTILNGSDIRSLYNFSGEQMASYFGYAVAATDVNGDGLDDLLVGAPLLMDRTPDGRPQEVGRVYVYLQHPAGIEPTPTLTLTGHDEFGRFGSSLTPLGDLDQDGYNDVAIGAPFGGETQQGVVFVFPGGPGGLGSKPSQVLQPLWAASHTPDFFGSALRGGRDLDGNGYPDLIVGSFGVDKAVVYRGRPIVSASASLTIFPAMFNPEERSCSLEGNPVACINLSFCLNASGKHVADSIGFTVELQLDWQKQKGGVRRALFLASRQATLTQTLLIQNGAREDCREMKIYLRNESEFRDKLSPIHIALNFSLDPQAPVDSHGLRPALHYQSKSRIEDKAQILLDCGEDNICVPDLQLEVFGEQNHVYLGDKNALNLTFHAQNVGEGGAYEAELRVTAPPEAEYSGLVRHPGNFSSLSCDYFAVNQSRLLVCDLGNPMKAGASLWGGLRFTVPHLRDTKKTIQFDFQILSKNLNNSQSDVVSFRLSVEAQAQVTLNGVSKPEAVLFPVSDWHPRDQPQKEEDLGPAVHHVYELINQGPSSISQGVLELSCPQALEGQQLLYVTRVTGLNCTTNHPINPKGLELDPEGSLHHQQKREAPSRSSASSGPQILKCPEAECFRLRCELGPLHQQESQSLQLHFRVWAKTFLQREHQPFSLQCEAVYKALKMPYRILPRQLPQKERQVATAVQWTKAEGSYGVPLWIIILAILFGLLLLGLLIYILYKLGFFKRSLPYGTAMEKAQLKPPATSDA
T2 sequence (P05556 21-798, chain 2 of 2): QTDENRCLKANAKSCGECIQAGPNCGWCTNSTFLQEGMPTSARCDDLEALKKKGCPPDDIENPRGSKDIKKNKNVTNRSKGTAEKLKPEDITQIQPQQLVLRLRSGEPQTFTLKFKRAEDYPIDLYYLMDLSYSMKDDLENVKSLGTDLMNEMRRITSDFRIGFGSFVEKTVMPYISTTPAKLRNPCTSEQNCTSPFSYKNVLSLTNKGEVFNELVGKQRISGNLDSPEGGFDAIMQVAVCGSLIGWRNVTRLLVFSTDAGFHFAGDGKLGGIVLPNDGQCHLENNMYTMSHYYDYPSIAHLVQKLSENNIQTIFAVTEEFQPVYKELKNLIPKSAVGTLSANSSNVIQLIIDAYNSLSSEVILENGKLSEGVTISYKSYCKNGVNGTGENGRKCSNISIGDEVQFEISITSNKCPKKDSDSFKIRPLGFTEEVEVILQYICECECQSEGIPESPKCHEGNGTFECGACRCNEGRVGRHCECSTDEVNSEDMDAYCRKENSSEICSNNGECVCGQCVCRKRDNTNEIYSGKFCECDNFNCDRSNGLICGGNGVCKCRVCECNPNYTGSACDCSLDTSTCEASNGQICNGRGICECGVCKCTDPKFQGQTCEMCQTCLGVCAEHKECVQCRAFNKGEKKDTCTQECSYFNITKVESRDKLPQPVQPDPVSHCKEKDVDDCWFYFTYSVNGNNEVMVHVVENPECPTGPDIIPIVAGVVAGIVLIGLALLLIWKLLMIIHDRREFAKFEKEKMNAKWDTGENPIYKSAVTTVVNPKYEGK

[3] = molecular target: T2, human α5β1 integrin, full-length …; test: BLI; inhibition: α5β1 integrin at 35.5 µg/mL preincubated one hour at room temperature with or without RGD peptide at 50 µg/mL, then LOXL2-coated AR2G sensor dipped in it; same buffer as the kinetics; conditions: both partners purified

Sequence of human α5β1 integrin, full-length (Millipore CC1027) (human) (P08648 42-1049, chain 1 of 2): as the sequence (P08648 42-1049, chain 1 of 2) above
Sequence of human α5β1 integrin, full-length (Millipore CC1027) (human) (P05556 21-798, chain 2 of 2, further chain): as the sequence (P05556 21-798, chain 2 of 2) above

Q: How did the percent decrease of the binding of α5β1 integrin to LOXL2 [1] turn out when RGD peptide (Sigma-Aldrich, A8052) was run?
A: 24.9%

B1: LOXL2 N-terminal scavenger receptor cysteine-rich domains SRCR 1-2 (residues 58-302) (domain or fragment, UniProt Q9Y4K0 58-302, looked up)
chain: LRLAGQKRKHSEGRVEVYYDGQWGTVCDDDFSIHAAHVVCRELGYVEAKSWTASSSYGKGEGPIWLDNLHCTGNEATLAACTSNGWGVTDCKHTEDVGVVCSDKRIPGFKFDNSLINQIENLNIQVEDIRIRAILSTYRKRTPVMEGYVEVKEGKTWKQICDKHWTAKNSRVVCGMFGFPGERTYNTKVYKMFASRRKQRYWPFSMDCTGTEAHISSCKLGPQVSLDPMKNVTCENGLPAVVSCV
notes: LOXL2, SRCR domains 1-2, residues 58-302; also called SRCR 1-2 domain; source: expressed as recombinant protein as previously described [62]
Q: B1 was tested. Which Kd (SPARC; both partners purified) did it give?
A: 21.4 nM

B2: lysyl oxidase-like 2 (LOXL2), full-length recombinant protein (enzyme, UniProt Q9Y4K0 26-774, looked up)
chain: QYDSWPHYPEYFQQPAPEYHQPQAPANVAKIQLRLAGQKRKHSEGRVEVYYDGQWGTVCDDDFSIHAAHVVCRELGYVEAKSWTASSSYGKGEGPIWLDNLHCTGNEATLAACTSNGWGVTDCKHTEDVGVVCSDKRIPGFKFDNSLINQIENLNIQVEDIRIRAILSTYRKRTPVMEGYVEVKEGKTWKQICDKHWTAKNSRVVCGMFGFPGERTYNTKVYKMFASRRKQRYWPFSMDCTGTEAHISSCKLGPQVSLDPMKNVTCENGLPAVVSCVPGQVFSPDGPSRFRKAYKPEQPLVRLRGGAYIGEGRVEVLKNGEWGTVCDDKWDLVSASVVCRELGFGSAKEAVTGSRLGQGIGPIHLNEIQCTGNEKSIIDCKFNAESQGCNHEEDAGVRCNTPAMGLQKKLRLNGGRNPYEGRVEVLVERNGSLVWGMVCGQNWGIVEAMVVCRQLGLGFASNAFQETWYWHGDVNSNKVVMSGVKCSGTELSLAHCRHDGEDVACPQGGVQYGAGVACSETAPDLVLNAEMVQQTTYLEDRPMFMLQCAMEENCLSASAAQTDPTTGYRRLLRFSSQIHNNGQSDFRPKNGRHAWIWHDCHRHYHSMEVFTHYDLLNLNGTKVAEGHKASFCLEDTECEGDIQKNYECANFGDQGITMGCWDMYRHDIDCQWVDITDVPPGDYLFQVVINPNFEVAESDYSNNIMKCRSRYDGHRIWMYNCHIGGSFSEETEKKFEHFSGLLNNQLSPQ
notes: lysyl oxidase-like 2 (LOXL2), full-length recombinant protein made in the laboratory; As a secreted recombinant protein it probably lacks its signal peptide (surmise); also called full-length LOXL2; soluble LOXL2; source: expressed as recombinant protein as previously described [62]
Q: Does B2 bind [2]?
A: binds

Q: And the KD1 (site 1, heterogeneous ligand model) (SPARC)?
A: 37.8 nM

Q: And the KD2 (site 2, heterogeneous ligand model) (SPARC)?
A: 41.5 nM

Q: What about the ka1 (site 1, heterogeneous ligand model) (SPARC) of the same molecule?
A: 186000 M⁻¹ s⁻¹

Q: And the ka2 (site 2, heterogeneous ligand model) (SPARC)?
A: 167000 M⁻¹ s⁻¹

Q: And the kd1 (site 1, heterogeneous ligand model) (SPARC)?
A: 0.00622 s⁻¹

Q: And the kd2 (site 2, heterogeneous ligand model) (SPARC)?
A: 0.00769 s⁻¹

B3: Recombinant human LOXL2 (R&D Systems, 2639-AO) (enzyme, UniProt Q9Y4K0 26-774, looked up)
chain: B2 chain
notes: recombinant human lysyl oxidase-like 2 (LOXL2), commercial protein; also called immobilized LOXL2; source: bought: R&D Systems, BioTechne, 2639-AO
Q: Does B3 bind [3]?
A: binds
